The text below walks through data of US20260151470A1.

This experiment deals with native PfCSP on PfCSP-expressing Plasmodium berghei (PbPf) sporozoites (Plasmodium falciparum) (UniProt P19597). In words: cell-based or functional assay.
Chain of UniProt P19597 (P19597 19-374 limits assumed): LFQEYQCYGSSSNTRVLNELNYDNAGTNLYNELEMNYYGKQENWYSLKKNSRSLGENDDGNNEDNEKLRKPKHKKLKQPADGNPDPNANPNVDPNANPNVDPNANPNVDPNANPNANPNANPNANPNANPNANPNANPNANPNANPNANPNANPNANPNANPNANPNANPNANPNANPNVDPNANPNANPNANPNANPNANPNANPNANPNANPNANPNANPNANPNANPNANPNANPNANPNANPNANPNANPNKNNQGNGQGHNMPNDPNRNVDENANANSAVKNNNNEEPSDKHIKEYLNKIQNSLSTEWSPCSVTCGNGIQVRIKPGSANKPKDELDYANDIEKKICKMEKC

Take anti-PfCSP 2A10 monoclonal antibody: the circumsporozoite precipitation reaction (CSPR), mean FSC-W worked out at 1220.
